Laboratory results reported in patent US20240116985A1 (published 2024).
Starred links: 1 amine or outer side, 2 acyl side, 3 side chain; linkers in the order of their positions; H or OH if unused. Positions of bridges follow the written chain, without caps; N, C: chain ends. Non-standard residues stand in square brackets, D forms with d. Primed or numbered codes have the meaning given here. PyrS2″ = (S)-3-amino-1-((pent-4-en-1-yloxy)carbonyl)pyrrolidine-3-carboxylic acid (stapling residue), C=CCCCOC(=O)N1CC[C@@](N[*:1])(C(=O)[*:2])C1; SeN″ = (S)-5-(((allyloxy)carbonyl)(methyl)amino)-2-amino-2-methylpentanoic acid (stapling residue), C=CCOC(=O)N(C)CCC[C@](C)(N[*:1])C(=O)[*:2]; B5(4) = 2,2-bis(4-pentenyl)glycine = 2-amino-2-(pent-4-en-1-yl)hept-6-enoic acid (stitching residue), C=CCCCC(CCCC=C)(N[*:1])C(=O)[*:2]; B5(21) = 2-amino-2-(pent-4-en-1-yl)hept-6-enoic acid, bis(4-pentenyl)glycine (stitching residue), C=CCCCC(CCCC=C)(N[*:1])C(=O)[*:2]; RdN = (R)-4-(((allyloxy)carbonyl)(methyl)amino)-2-amino-2-methylbutanoic acid, C=CCOC(=O)N(C)CC[C@@](C)(N[*:1])C(=O)[*:2]; S7 = C[C@@](CCCCCC=[*:3])(N[*:1])C(=O)[*:2]; Phe(2-Cl) = N[C@@H](Cc1ccccc1Cl)C(=O)O; Bta = N[C@@H](Cc1csc2ccccc12)C(=O)O; αAllylPro = C=CC[C@@]1(C(=O)O)CCCN1; tBuAla = CC(C)(C)C[C@H](N)C(=O)O; Cha = N[C@@H](CC1CCCCC1)C(=O)O; Thr(ol) = C[C@@H](O)[C@H](N)CO

T1: full-length beta-Catenin (Uniprot ID P35222) (Homo sapiens (Human), UniProt P35222 2-781)
T1 construct: Used full-length in both the FP and the AlphaScreen assay; also called B-Catenin; bCat
T1 sequence: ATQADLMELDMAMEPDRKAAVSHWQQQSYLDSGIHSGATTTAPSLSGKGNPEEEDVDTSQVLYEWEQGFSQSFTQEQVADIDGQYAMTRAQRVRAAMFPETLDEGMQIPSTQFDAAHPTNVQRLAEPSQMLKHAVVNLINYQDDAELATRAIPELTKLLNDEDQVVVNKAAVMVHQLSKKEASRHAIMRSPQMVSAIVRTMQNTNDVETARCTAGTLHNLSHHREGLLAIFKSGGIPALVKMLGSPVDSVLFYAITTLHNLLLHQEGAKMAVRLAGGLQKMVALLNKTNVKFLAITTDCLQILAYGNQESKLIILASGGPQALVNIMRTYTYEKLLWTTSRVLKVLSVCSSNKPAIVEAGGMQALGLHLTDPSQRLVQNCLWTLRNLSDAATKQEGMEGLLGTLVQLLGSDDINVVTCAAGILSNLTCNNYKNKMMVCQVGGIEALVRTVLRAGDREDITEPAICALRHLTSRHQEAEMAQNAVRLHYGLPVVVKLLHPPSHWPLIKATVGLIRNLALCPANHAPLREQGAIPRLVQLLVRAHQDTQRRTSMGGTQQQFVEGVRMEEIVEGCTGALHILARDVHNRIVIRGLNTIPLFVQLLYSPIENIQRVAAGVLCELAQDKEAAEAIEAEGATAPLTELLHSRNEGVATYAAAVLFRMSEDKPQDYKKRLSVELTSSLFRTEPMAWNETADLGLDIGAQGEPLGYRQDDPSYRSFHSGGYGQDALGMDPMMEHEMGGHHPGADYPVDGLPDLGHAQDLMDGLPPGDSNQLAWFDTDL

T2: B-cat-Halo (UniProt P35222 1-781)
T2 sequence (looked up): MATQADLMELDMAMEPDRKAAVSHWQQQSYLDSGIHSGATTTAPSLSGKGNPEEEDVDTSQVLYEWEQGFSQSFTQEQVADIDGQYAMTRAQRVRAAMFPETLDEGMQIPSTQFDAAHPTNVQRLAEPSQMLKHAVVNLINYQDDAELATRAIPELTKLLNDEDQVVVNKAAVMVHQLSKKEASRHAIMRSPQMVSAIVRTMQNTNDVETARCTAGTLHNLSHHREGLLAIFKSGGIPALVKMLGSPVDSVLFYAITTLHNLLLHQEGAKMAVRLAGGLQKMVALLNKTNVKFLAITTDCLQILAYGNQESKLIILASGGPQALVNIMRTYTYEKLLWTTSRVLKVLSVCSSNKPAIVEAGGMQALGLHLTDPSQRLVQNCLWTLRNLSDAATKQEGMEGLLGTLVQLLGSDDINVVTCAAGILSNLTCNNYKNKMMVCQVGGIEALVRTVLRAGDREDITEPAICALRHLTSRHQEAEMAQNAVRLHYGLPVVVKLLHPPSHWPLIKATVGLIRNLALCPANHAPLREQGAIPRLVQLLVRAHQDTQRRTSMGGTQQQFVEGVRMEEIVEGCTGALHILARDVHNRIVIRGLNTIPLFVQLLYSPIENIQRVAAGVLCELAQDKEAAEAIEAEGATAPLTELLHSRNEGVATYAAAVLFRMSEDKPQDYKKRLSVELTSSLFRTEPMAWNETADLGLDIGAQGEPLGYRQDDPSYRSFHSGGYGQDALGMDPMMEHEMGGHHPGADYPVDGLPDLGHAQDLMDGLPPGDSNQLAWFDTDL

T3: full-length beta-Catenin (Uniprot ID P35222) (Homo sapiens (Human), UniProt P35222 2-781)
T3 construct: also called B-Catenin; bCat
T3 sequence: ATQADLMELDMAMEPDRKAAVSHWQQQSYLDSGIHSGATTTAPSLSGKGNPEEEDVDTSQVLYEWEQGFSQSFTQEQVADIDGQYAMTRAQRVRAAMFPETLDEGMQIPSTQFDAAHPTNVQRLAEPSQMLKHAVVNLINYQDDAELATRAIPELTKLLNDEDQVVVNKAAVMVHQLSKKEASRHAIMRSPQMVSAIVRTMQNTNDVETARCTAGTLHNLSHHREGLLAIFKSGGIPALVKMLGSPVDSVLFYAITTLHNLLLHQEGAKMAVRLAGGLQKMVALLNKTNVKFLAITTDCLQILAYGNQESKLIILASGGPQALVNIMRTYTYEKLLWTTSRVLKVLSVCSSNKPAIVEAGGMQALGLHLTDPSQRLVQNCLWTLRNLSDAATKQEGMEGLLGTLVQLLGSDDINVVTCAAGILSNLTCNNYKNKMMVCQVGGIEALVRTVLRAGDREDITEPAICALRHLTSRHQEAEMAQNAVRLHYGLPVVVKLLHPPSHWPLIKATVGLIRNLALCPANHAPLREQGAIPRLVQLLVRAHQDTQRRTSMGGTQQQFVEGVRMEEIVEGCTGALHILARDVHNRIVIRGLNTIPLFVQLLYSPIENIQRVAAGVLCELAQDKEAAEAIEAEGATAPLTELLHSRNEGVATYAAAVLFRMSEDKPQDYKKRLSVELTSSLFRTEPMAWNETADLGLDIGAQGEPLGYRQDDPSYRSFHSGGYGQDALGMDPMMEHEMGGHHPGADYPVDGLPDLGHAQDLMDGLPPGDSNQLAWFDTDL


Key:
[1] = target: T1, full-length beta-Catenin (Uniprot ID …); assay: AlphaScreen competition; full-length beta-catenin, biotin-TCF4(10-53) probe
Method: Equal volume of the titrated peptide was added to the plate and incubated for 15 minutes at 20° C. Then 4 uL of donor and 4 uL acceptor beads at 10 ug/mL were added to the plate, for a 16 uL reaction pool and protected from light for 60 minutes at 20° C. prior to read. Reads were performed on a CLARIOstar plate reader (BMG Labtech) in duplicate, and data were fitted to a 1:1 binding model with hill slope using an in-house script. All provided concentrations are final concentrations.

[2] = target: T1, full-length beta-Catenin (Uniprot ID …); assay: fluorescence polarization competition; full-length beta-catenin, 5FAM-TCF4(10-53) probe
Method: (§1) The plate was incubated protected from light for 60 minutes at 20° C. prior to read. Reads were performed on a CLARIOstar plate reader (BMG Labtech) in duplicate, and data were fitted to a 1:1 binding model with hill slope using an in-house script. All provided concentrations are final concentrations.

[3] = target: T2, B-cat-Halo; assay: cell-based or functional assay
[4] = target: T3, full-length beta-Catenin (Uniprot ID …); assay: fluorescence polarization competition; 5FAM-TCF4(10-53) probe with full-length beta-catenin
Method: as §1

EC50 [1] | EC50 [2] | NanoBRET Abs IC50 (uM); B-cat-Halo / TCF4-Luc in HEK293 cells [3] | EC50 [4] | Binder
1140 nM | 5000 nM |  |  | Ac-[αAllylPro]DA[B5(21)]DDAAFV[SeN″]FWQ-NH2 (staple 1-4, 4-11; also: earlier-eluting HPLC isomer, E/Z not given here, Stapled (stitched) peptide; also called Ac-PL3-Asp-Ala-B5-Asp-Asp-Ala-Ala-Phe-Val-SeN-Phe-Trp-Gln-NH2) [I-53]
 |  | > 20 µM |  | Ac-[αAllylPro]D[Cha][B5(4)]DTAAFT[PyrS2″][Phe(2-Cl)][Bta][Thr(ol)] (staple 1-4, 4-11) [I-1310]
 | 4250 nM |  |  | Ac-ADI[RdN]DDAAFQ[S7]FWH-NH2 (staple 4-11; not fully specified, Stapled peptide; also called Ac-Ala-Asp-Ile-RdN-Asp-Asp-Ala-Ala-Phe-Gln-S7-Phe-Trp-His-NH2) [I-64]
154 nM | 1230 nM |  |  | Ac-ADI[RdN]DEAAFQ[S7]FWH-NH2 (staple 4-11, Stapled peptide; also called Ac-Ala-Asp-Ile-RdN-Asp-Glu-Ala-Ala-Phe-Gln-S7-Phe-Trp-His-NH2) [I-67]
174 nM | 1090 nM |  |  | Ac-ADI[RdN]DEAAFQ[S7]FWH-NH2 (staple 4-11; not fully specified, Stapled peptide; also called Ac-Ala-Asp-Ile-RdN-Asp-Glu-Ala-Ala-Phe-Gln-S7-Phe-Trp-His-NH2) [I-66]
 |  | 28.6 µM |  | Ac-[αAllylPro]D[tBuAla][B5(4)]DTAAFT[PyrS2″][Phe(2-Cl)][Bta][Thr(ol)] (staple 1-4, 4-11) [I-1309]
 |  |  | 5 µM | XDAXDEAAFVXFWX (not fully specified; as printed: Ac-PL3-Asp-Ala-B5-Asp-Glu-Ala-Ala-Phe-Val-S8-Phe-Trp-Aib-NH2; staples PL3(1)-B5(4) and B5(4)-S8(11), Stitched (two-staple) peptide composition) [I-133]
